# Numbering of substitutions follows the chain as printed.
# B1: 3x second W-box (W2) (dsDNA)
# DNA 1: TGGTCTGACCATCTTGGTCTGACCATCTTGGTCTGACCATCT
# DNA 2: AGATGGTCAGACCAAGATGGTCAGACCAAGATGGTCAGACCA
# B2: W1m4 probe (dsDNA)
# DNA 1: TCAAAATCAAGGACACATGGTCTGACCATCTCCTCTCCTCCTCTTCTTCTCCATCTTCTAATTTTTTCAACGGTCAAACTT
# DNA 2: AAGTTTGACCGTTGAAAAAATTAGAAGATGGAGAAGAAGAGGAGGAGAGGAGATGGTCAGACCATGTGTCCTTGATTTTGA
# B3: W1m3 probe (dsDNA)
# DNA 1: B2 DNA 1 with A6G, T7G
# DNA 2: B2 DNA 2 with A75C, T76C
# B4: W1m2 probe (dsDNA)
# DNA 1: B2 DNA 1 with A6G, C8G
# DNA 2: B2 DNA 2 with G74C, T76C
# B5: W1m5 probe (dsDNA)
# DNA 1: B2 DNA 1 with A5C, A6C, T7C, C8G, A9G, A10G
# DNA 2: B2 DNA 2 with T72C, T73C, G74C, A75G, T76G, T77G
# B6: W1m1 probe (dsDNA)
# DNA 1: B2 DNA 1 with A6G, A9T
# DNA 2: B2 DNA 2 with T73A, T76C
# B7: 3x first W-box (W1) (dsDNA)
# DNA 1: TCAAAGTCAAGGACTCAAAGTCAAGGACTCAAAGTCAAGGAC
# DNA 2: GTCCTTGACTTTGAGTCCTTGACTTTGAGTCCTTGACTTTGA
# B8: 3x third W-box (W3) (dsDNA)
# DNA 1: CAACGGTCAAACTTCAACGGTCAAACTTCAACGGTCAAACTT
# DNA 2: AAGTTTGACCGTTGAAGTTTGACCGTTGAAGTTTGACCGTTG
# B9: Mt probe (three W-boxes mutated) (dsDNA)
# DNA 1: TCAACCCGGGGGACACATGGTCCCGGGATCTCCTCTCCTCCTCTTCTTCTCCATCTTCTAATTTTTTCAACCCCGGGACTT
# DNA 2: AAGTCCCGGGGTTGAAAAAATTAGAAGATGGAGAAGAAGAGGAGGAGAGGAGATCCCGGGACCATGTGTCCCCCGGGTTGA
# B10: GCC-box (dsDNA)
# DNA 1: CATAAGAGCCGCCACT
# DNA 2: AGTGGCGGCTCTTATG
# B11: 33probe (WT) (dsDNA)
# DNA 1: B2 DNA 1 with A6G
# DNA 2: B2 DNA 2 with T76C
# B12: W-box probe (Fig 12b) (dsDNA)
# DNA 1: B2 DNA 1 with A6G
# DNA 2: B2 DNA 2 with T76C
# Target: T1, BnWRKY15 (Brassica napus, UniProt A0A291B474 1-319)
# T1 sequence (A0A291B474 entry or part of it): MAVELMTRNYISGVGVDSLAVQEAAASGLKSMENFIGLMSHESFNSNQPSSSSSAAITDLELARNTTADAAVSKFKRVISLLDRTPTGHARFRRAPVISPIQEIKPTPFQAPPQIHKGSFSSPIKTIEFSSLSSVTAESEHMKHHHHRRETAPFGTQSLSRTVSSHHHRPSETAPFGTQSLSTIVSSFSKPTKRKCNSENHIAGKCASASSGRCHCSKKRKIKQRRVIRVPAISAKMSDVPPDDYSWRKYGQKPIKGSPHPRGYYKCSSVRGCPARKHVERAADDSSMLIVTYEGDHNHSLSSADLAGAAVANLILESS
# Assay: EMSA; Beyotime EMSA binding buffer (composition, pH not stated), 40 nM Cy5 DNA probe, room temperature; 6% native PAGE in ice water bath
# Conditions: protein: recombinant; tags: 6xHis (pET-32a fusion); label: Cy5
row,Binder,binding result
1,B1,binds
2,B2,binds
3,B3,binds
4,B4,binds
5,B5,binds
6,B6,binds
7,B7,binds
8,B8,binds
9,B9,no binding

# Target: T1, BnWRKY15
# Assay: competition; unlabelled competitor against Cy5-33probe; Beyotime EMSA binding buffer (composition, pH not stated), 40 nM Cy5 DNA probe, room temperature; 6% native PAGE in ice water bath
# Conditions: protein: recombinant; tags: 6xHis (pET-32a fusion); label: unlabelled
row,Binder,binding result
1,B10,no binding

# Target: T1, BnWRKY15
# Assay: EMSA; competed by unlabelled 33probe (12.5x, 25x); Beyotime EMSA binding buffer (composition, pH not stated), 40 nM Cy5 DNA probe, room temperature; 6% native PAGE in ice water bath
# Conditions: protein: recombinant; tags: 6xHis (pET-32a fusion); label: Cy5
row,Binder,binding result
1,B11,binds

# Target: T1, BnWRKY15
# Assay: EMSA; alone; also outcompetes equal BnWRKY33; Beyotime EMSA binding buffer (composition, pH not stated), 40 nM Cy5 DNA probe, room temperature; 6% native PAGE in ice water bath
# Conditions: protein: recombinant; tags: 6xHis (pET-32a fusion); label: Cy5
row,Binder,binding result
1,B12,binds
